Results taken from US20110177070A1 (EMERGENT PRODUCT DEVELOPMENT SEATLLE, published 2011).

Key:
[1] = target: Xceptor fusion protein TRU(XT6)-1042; assay: sandwich ELISA: Xceptor captured on anti-human IgG-Fc, sIL-6R, anti-human IL-6R-biotin
Experimental: Added to each well of a 96-well plate was 100 μl goat anti-human IgG-Fc (ICN Pharmaceuticals, Costa Mesa, Calif.) from a 2 μg/ml solution in PBS, pH 7.2-7.4, The plates were covered, and incubated overnight at 4° C. After washing four times with PBS-T, 250 μl Blocking buffer (PBS-T with 3% BSA or 10% normal goat serum) was added to each well, the plate was covered, and incubated at room temperature for 2 hours (or at 4° C. overnight). After washing the plate three times with PBS-T, added in duplicate wells to the anti-human IgG-Fc coated plate was 100 μl/well Xceptor TNFRSF1B::anti-HIL6 samples, positive control anti-human IL-6R(R&D Systems, Minneapolis, Minn.) and negative controls human IgG or human gp130-Fc chimera (R&D Systems), each serially diluted three-fold in Working buffer starting at 300 ng/ml, the plate was covered, and incubated at room temperature for about 1 to 2 hours. After washing the plate five times with PBS-T, added in duplicate wells was 100 μl/well recombinant human sIL-6R(R&D Systems) from a 75 pM solution in Working buffer, the plate was covered, and incubated at room temperature for about 1 to 2 hours. After washing the plate five times with PBS-T, added 100 μl/well anti-human IL-6R-biotin (R&D Systems) from a 100 ng/ml solution in Working buffer, the plate was covered, and incubated at room temperature for about 1 to 2 hours. After washing the plate five times with PBS-T, 100 μl per well horse radish peroxidase-conjugated streptavidin (Zymed, San Francisco, Calif.) diluted 1:4,000 in Working buffer was added, the plate was covered, and incubated at room temperature for 30 minutes. After washing the plate six times with PBS-T, 100 μl per well 3,3,5,5-tetramentylbenzidine (TMB) substrate solution (Pierce, Rockford, Ill.) was added for about 3 to 5 minutes and then the reaction was stopped with 50 μl Stop buffer (1N H₂SO₄) per well. The absorbance of each well was read at 450 nm.

[2] = target: T1, recombinant human TNF-α (human, UniProt P01375 77-233); assay: dual-ligand ELISA: plate-coated HIL-6, Xceptor, 2 ng/ml TNF-α, anti-human TNF-α-biotin
T1 construct: also called rhTNF-α
T1 sequence (P01375 77-233 limits assumed): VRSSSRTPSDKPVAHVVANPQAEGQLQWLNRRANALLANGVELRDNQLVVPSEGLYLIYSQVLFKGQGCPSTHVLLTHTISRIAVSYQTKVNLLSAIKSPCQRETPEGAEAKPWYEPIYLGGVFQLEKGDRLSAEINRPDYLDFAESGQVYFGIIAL
Experimental: Added to each well of a 96-well plate was 100 μl human HIL-6 solution (5 μg/ml in PBS, pH 7.2-7.4). The plate was covered, and incubated overnight at 4° C. After washing four times with PBS-T, then 250 μl Blocking buffer was added to each well, the plate was covered, and incubated at room temperature for 2 hours (or at 4° C. overnight). After washing the plate three times with PBS-T, added in duplicate wells to the HIL-6 coated plate was 100 μl/well Xceptor TNFRSF1B::HIL6 samples serially diluted three-fold in Working buffer starting at 300 ng/ml. Negative controls included human gp130-Fc chimera (R&D Systems, Minneapolis, Minn.), Enbrel® (etanercept), and Working buffer only. The plate was covered and incubated at room temperature for 1.5 hours. After washing the plate five times with PBS-T, 100 μl per well recombinant human TNF-α (R&D Systems, Minneapolis, Minn.) to 2 ng/ml in Working buffer was added, the plate was covered, and incubated at room temperature for 1.5 hr. After washing the plate five times with PBS-T, 100 μl per well anti-human TNF-α-biotin (R&D Systems) to 200 ng/ml in Working buffer was added, the plate was covered, and incubated at room temperature for 1.5 hr. […] The absorbance of each well was read at 450 nm.

B1: recombinant human sIL-6R (receptor)
chain: LAPRRCPAQEVARGVLTSLPGDSVTLTCPGVEPEDNATVHWVLRKPAAGSHPSRWAGMGRRLLLRSVQLHDSGNYSCYRAGRPAGTVHLLVDVPPEEPQLSCFRKSPLSNVVCEWGPRSTPSLTTKAVLLVRKFQNSPAEDFQEPCQYSQESQKFSCQLAVPEGDSSFYIVSMCVASSVGSKFSKTQTFQGCGILQPDPPANITVTAVARNPRWLSVTWQDPHSWNSSFYRLRFELRYRAERSKTFTTWMVKDLQHHCVIHDAWSGLRHVVQLRAQEEFGQGEWSEWSPEAMGTPWTESRSPPAENEVSTPMQALTTNKDDDNILFRDSANATSLPVQD
notes: Bought soluble receptor; also called human soluble IL6R; IL6R alone
B1: no binding (tested: Xceptor from 300 ng/ml; sIL-6R 75 pM) [1].

B2: Xceptor fusion protein TRU(XT6)-1006 (Fc fusion)
chain: LPAQVAFTPYAPEPGSTCRLREYYDQTAQMCCSKCSPGQHAKVFCTKTSDTVCDSCEDSTYTQLWNWVPECLSCGSRCSSDQVETQACTREQNRICTCRPGWYCALSKQEGCRLCAPLRKCRPGFGVARPGTETSDVVCKPCAPGTFSNTTSSTDICRPHQICNVVAIPGNASMDAVCTSTSPTRSMAPGAVHLPQPVSTRSQHTQPTPEPSTAPSTSFLLPMGPSPPAEGSTGDTGEPKSSDKTHTCPPCPAPEAAGAPSVFLFPPKPKDTLMISRTPEVTCVVVDVSHEDPEVKFNWYVDGVEVHNAKTKPREEQYNSTYRVVSVLTVLHQDWLNGKAYACAVSNKALPAPIEKTISKAKGQPREPQVYTLPPSRDELTKNQVSLTCLVKGFYPSDIAVEWESNGQPENNYKTTPPVLDSDGSFFLYSKLTVDKSRWQQGNVFSCSVMHEALHNHYTQKSLSLSPGQRHNNSSLNTRTQKARHSPNSEVQLLESGGGLVQPGGSLRLSCAASGFTFSQYNMIWVRQAPGKGLEWVSWISSSGGTEYADSVKGRFTISRDNSKNTLYLQMNSLRAEDTAVYYCAKDRGYGSGSYGAYDAFDIWGQGTMVTVSSGGGGSGGGGSGGGGSQDIQMTQSPSSLSASVGDRVTITCQTSQSIDRYLNWYQQKAGEAPKLLIYAASSLQSGVPSRFSGSGSGTDFTLTISSLQPEDFASYYCQQSYRTPRTFGQGTKVEIK
notes: Xceptor TNFRSF1B::anti-HIL6
B2: binds [2].
